Laboratory results as given in patent US20230133118A1, “COMPOSITIONS AND METHODS FOR TREATING CANCER” (Adagene AG, priority 2020, published 2023).

Molecular target: human CD137 (human) (UniProt Q07011)
Assay: surface plasmon resonance (SPR); format not described

Urelumab (antibody), sequence (VH): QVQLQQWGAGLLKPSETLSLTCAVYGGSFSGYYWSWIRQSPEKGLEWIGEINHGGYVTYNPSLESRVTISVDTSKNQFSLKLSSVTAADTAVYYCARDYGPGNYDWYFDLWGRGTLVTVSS
Urelumab (antibody), sequence (VL): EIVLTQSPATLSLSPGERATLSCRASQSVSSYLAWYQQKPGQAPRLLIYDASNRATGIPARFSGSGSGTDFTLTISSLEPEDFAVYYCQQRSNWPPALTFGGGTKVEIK
human CD137 (human), sequence (Q07011 24-186 limits assumed): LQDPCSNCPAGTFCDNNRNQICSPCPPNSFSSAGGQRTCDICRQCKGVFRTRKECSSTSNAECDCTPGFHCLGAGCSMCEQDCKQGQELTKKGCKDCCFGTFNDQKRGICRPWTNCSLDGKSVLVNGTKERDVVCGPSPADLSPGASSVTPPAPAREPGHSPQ

Kd: 9.6 nM
Substance: Urelumab (antibody)
